# Data as given in PMC4754353.
# Biological target: Nrp1 immobilized on the BLI biosensor (UniProt Q9QWJ9)
# Assay: BLI
row,Kd,Substance
1,29.8 nM,"human glycyl-tRNA synthetase L129P mutant (L129P-GlyRS^CMT2D), non-tagged (enzyme)"
2,209 nM,"human glycyl-tRNA synthetase P234KY mutant (P234KY-GlyRS^CMT2D), non-tagged (enzyme)"
